Experimental findings from patent US20090169546A1 (published 2009) are described below.

Broadly, the Kd is the constant that tells how readily two partners part at equilibrium.

For assay [1], the target named is T1, recombinant HMG1 produced in E. coli as calmodulin binding protein (CBP) fusion (human).
T1 chain: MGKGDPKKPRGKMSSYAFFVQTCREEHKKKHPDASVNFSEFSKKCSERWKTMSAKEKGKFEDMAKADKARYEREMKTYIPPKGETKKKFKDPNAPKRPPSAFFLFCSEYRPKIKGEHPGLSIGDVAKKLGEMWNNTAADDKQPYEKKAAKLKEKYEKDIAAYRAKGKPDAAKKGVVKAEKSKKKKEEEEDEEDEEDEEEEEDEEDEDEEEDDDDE
Put plainly: BIAcore 3000; mAb amine-coupled to CM5, HMG1 injected in two-fold dilutions; steady-state model. The procedure:
HMG1 Binding Affinity via BIAcore Analysis: All experiments were performed on a BIAcore 3000 instrument (BIAcore, Inc., Piscataway, N.J.). Briefly, each mAb was immobilized to a CM5 sensor chip using a standard amine coupling chemistry. Separately a reference (control) flow cell was also prepared. Two-fold, serial dilutions of HMG1 in instrument buffer were sequentially injected at a slow flow rate over the individual mAb and reference flow-cell surfaces. Following the binding and dissociation of HMG1, the mAbs surfaces were regenerated with a brief pulse of 1M NaCl-50 mM NaOH. At the end of each experiment, the binding curves were evaluated using a steady-state model available through the BIAevaluation software supplied by BIAcore, Inc. (Piscataway, N.J.).
Background: Surface plasmon resonance follows binding to a sensor surface in real time, without labels.

Assay [2] concerns the target T1, recombinant HMG1 produced in E. coli as …. Put plainly: cell-based or functional assay.

B1: anti-HMG1 antibody G16 (antibody, V domains shown)
VH: EVQLLESGGGLVQPGGSLRLSCAASGFTFSWYKMTWVRQAPGKGLEWVSSISPSGGFTSYADSVKGRFTISRDNSKNTLYLQMNSLRAEDTAVYYCARDLDIRHAFDIWGQGTMVTVSS
VL: DIQMTQSPGTLSLSPGESGTLSCRASESVSSRHFAWYQQKPGQAPRLLIYGASSRPTGIPDRFSGSGSGTDFTLTLSRLEPEDFAVYFCQYYGSSPYTFGGGTKVEMK
In the case of B1, the Kd in assay [1] worked out at 22 nM. Besides, in assay [2], the “IC50, inhibition of HMG1 stimulated NO release from macrophages” value came out at 22 µg/mL and the “IC50, inhibition of rHMG1 stimulated IL-6 release from human PBMCs” value stood at 1.06 nM.

B2: anti-HMG1 antibody G20 (antibody, V domains shown)
VH: EVQLLESGGGLVQPGGSLRLSCAASGFTFSWYDMFWVRQAPGKGLEWVSWISPSGGYTKYADSVKGRFTISRDNSKNTLYLQMNSLRAEDTAMYYCARSGLDYYDSSGYLDAFDIWGQGTMVTVSS
VL: DIQMTQSPSSVSASVGDRVTITCRASQDVSIWLAWYQQKPGKAPKLLIFGASRLQSGVPSRFSGSRSGADFTLTIDSVQPEDFASYYCQQADSFPLTFGGGTKVEIK
Take B2: in assay [2], the “IC50, inhibition of HMG1 stimulated NO release from macrophages” value came to 20.4 µg/mL; the “IC50, inhibition of rHMG1 stimulated IL-1β release from human PBMCs” value was 0.4 µg/mL; the “IC50, inhibition of rHMG1 stimulated IL-6 release from human PBMCs” value worked out at 0.652 nM; the “IC50, inhibition of rHMG1 stimulated TNF-α release from human PBMCs” value turned out to be 0.598 µg/mL.

B3: anti-HMG1 antibody G12 (antibody, V domains shown)
VH: EVQLLESGGGLVQPGGSLRLSCAASGFTFSYYMMTWVRQAPGKGLEWVSSISPSGGYTIYADSAKGRFTISRDNSKNTLYLQMNSLRAEDTAVYYCARALSTGSFWDYWGQGTLVTVSS
VL: DIQMTQSPGTLSLSPGERATLSCRASESLTSTYVAWYQHKPGQAPRLLIHGGSTRATGIPVRFSGSGSGTDFTLTIATLEPEDFAVYYCQQYGSSPYTFGQGTKLEIK
For the molecule B3, the Kd in assay [1] is 73 nM. Moreover, in assay [2], the “IC50, inhibition of rHMG1 stimulated IL-1β release from human PBMCs” value stood at 5.91 µg/mL; the “IC50, inhibition of rHMG1 stimulated IL-6 release from human PBMCs” value was 1.12 nM; the “IC50, inhibition of rHMG1 stimulated IL-12 release from human PBMCs” value was 2.79 µg/mL; the “IC50, inhibition of rHMG1 stimulated TNF-α release from human PBMCs” value was 0.796 µg/mL.

B4: anti-HMG1 antibody S12 (antibody, V domains shown)
VH: EVQLLESGGGLVQPGGSLRLSCAASGFTFSKYIMHWVRQAPGKGLEWVSGIVPSGGLTEYADSVKGRFTISRDNSKNTLYLQMNSLRAEDTATYYCAKEIFGQFDYWGQGTLVTVSS
VL: AQSALTQPPSVSAAPRQRVTISCSGSTSNIGNNAVTWYQYFPGKAPKLLIYSDNQRPSGVPDRFSGSKSGTSASLAITGLQAEDEADYYCQSYDRGLSVVFGGGTKLTVL
For B4, the “IC50, inhibition of rHMG1 stimulated IL-6 release from human PBMCs” value in assay [2] was found to be 1.67 nM.

B5: anti-HMG1 antibody E11 (antibody, V domains shown)
VH: EVQLLESGGGLVQPGGSLRLSCAASGFTFSRYQMNWVRQAPGKGLEWVSSISPSGGHTHYADSVKGRFTISRDNSKNTLYLQMNSLRAEDTAVYYCAKDGRQGKISTVDHWGQGTLVTVSS
VL: DIQMTQSPGTLSLSPGERATLSCRASQSVRSNFLAWYQQKPGQAPRLLIYGASRRASGIPDRFSGSGFGADFTLSISRLEPEDFAVYYCQQYGSSPNTFGQGSRVEIK
As to B5, in assay [2], the “IC50, inhibition of HMG1 stimulated NO release from macrophages” value was 101 µg/mL and the “IC50, inhibition of rHMG1 stimulated IL-6 release from human PBMCs” value stood at 1.22 nM.

B6: anti-HMG1 antibody S17 (antibody, V domains shown)
VH: EVQLLESGGGLVQPGGSLRLSCAASGFTFSYYDMHWVRQAPGKGLEWVSRISPSGGYTWYADSVKGRFTISRDNSKNTLYLQMNSLRAEDTAVYYCTRGRYTSGWHEYFDPWGQGTLVTVSS
VL: DIQMTQSPSSLSASVGDRVTITCRASQSIGTYLNWYQQKPGTAPKVLIYAASSLQSGVPSRFSGSGSGTDFTLTISSLQPEDFSTYYCQQSYNTPRTFGQGTKLEIK
Take B6: in assay [2], the “IC50, inhibition of HMG1 stimulated NO release from macrophages” value worked out at 41.7 µg/mL; the “IC50, inhibition of rHMG1 stimulated IL-1β release from human PBMCs” value is 0.0809 µg/mL; the “IC50, inhibition of rHMG1 stimulated IL-6 release from human PBMCs” value stood at 0.162 nM.

B7: anti-HMG1 antibody G35 (antibody, V domains shown)
VH: EVQLLESGGGLVQPGGSLRLSCAASGFTFSWYKMVWVRQAPGKGLEWVSSIVPSGGITIYADSVKGRFTISRDNSKNTLYLQMNSLRAEDTAVYYCARVQQWLGRPYFDYWGQGTLVTVSS
VL: DIQMTQSPLSLPVTPGEPASISCRSSQSLLHGNGYNYLDWYLQRPGQSPQLLIYSGSNRASGVPDRFSGSGSGTDFTLKISRVEAEDVGVYYCMQSLQSRTFGQGTKVEIK
In the case of B7, the Kd in assay [1] is 242 nM. For the same molecule, the “IC50, inhibition of rHMG1 stimulated IL-6 release from human PBMCs” value in assay [2] turned out to be 0.564 nM.

B8: anti-HMG1 antibody G2 (antibody, V domains shown)
VH: EVQLLESGGGLVQPGGSLRLSCAASGFTFSWYKMQWVRQAPGKGLEWVSGISPSGGSTAYADSVKGRFTISRDNSKNTLYLQMNSLRAEDTAVYYCAKMGLFNTGNSYVDYWGQGTLVTVSS
VL: AQSELTQPPSVSEAPGQRVTISCSGSTSNIGNNAVIWYQQLPGKAPKLLIYYDDLLPSGVSDRFSGSKSGTSGSLAISGLQSEDEADYYCASWDDNLNGPLFGGGTKLTVL
Take B8: in assay [2], the “IC50, inhibition of rHMG1 stimulated IL-1β release from human PBMCs” value was 5.03 µg/mL; the “IC50, inhibition of rHMG1 stimulated IL-6 release from human PBMCs” value was 0.994 nM; the “IC50, inhibition of rHMG1 stimulated IL-12 release from human PBMCs” value stood at 1.26 µg/mL; the “IC50, inhibition of rHMG1 stimulated TNF-α release from human PBMCs” value stood at 1.35 µg/mL.

B9: anti-HMG1 antibody G34 (antibody, V domains shown)
VH: EVQLLESGGGLVQPGGSLRLSCAASGFTFSHYMMGWVRQAPGKGLEWVSRISPSGGGTVYADSVKGRFTISRDNSKNTLYLQMNSLRAEDTAVYYCARGGNWNYISYYYYYLDVWGKGTTVTVSS
VL: DIQMTQSPSSLSASVGDRVAITCRASQSIDTYLNWYQQKPGKAPKLLIYAASKLEDGVPSRFSGSGTGTDFTLTIRSLQPEDFASYFCQQSYSSPGITFGPGTKVEIK
Take B9: the Kd in assay [1] was determined as 67 nM. Further, the “IC50, inhibition of rHMG1 stimulated IL-6 release from human PBMCs” value in assay [2] stood at 0.858 nM.

B10: anti-HMG1 antibody S14 (antibody, V domains shown)
VH: EVQLLESGGGLVQPGGSLRLSCAASGFTFSWYETGWVRQAPGKGLEWVSGISPSGGYTQYADSVKGRFTISRDNSKNTLYLQMNSLRAEDTAVYYCARSGVGATKIFDYWGQGTLVTVSS
VL: DIQMTQSPSSLSASVGDRVTIICRANERINTYLNWYQQKPGKAPKLLISGTSSLESGVPSRFSGSGSGTEFTLSISSLQPEDFASYYCQQSYSSPYTFGQGTNLEIR
Regarding B10, the Kd in assay [1] turned out to be 205 nM. Also, in assay [2], the “IC50, inhibition of rHMG1 stimulated IL-1β release from human PBMCs” value came to 0.0678 µg/mL; the “IC50, inhibition of rHMG1 stimulated IL-6 release from human PBMCs” value was found to be 0.191 nM; the “IC50, inhibition of rHMG1 stimulated TNF-α release from human PBMCs” value came to 0.0662 µg/mL.

B11: anti-HMG1 antibody G9 (antibody, V domains shown)
VH: EVQLLESGGGLVQPGGSLRLSCAASGFTFSSYDMFWVRQAPGKGLEWVSRISPSGGYTYYADSVKGRFTISRDNSKNTLYLQMNSLRAEDTAVYYCARLRYFDSRGYAFDIWGQGTMVTVSS
VL: DIQMTQSPGTLSLSPGERATLSCRASQSVRSSYLAWYQQKPGQAPRLLIYGASTRATGIPDRFSGSGSGTDFTLTISRLEPEDFAVYYCQQYGTSRWTFGQGTKVEIK
Consider B11, for which, in assay [1], the Kd came to 125 nM. Also, in assay [2], the “IC50, inhibition of rHMG1 stimulated IL-1β release from human PBMCs” value was found to be 0.211 µg/mL; the “IC50, inhibition of rHMG1 stimulated IL-6 release from human PBMCs” value amounted to 0.246 nM; the “IC50, inhibition of rHMG1 stimulated TNF-α release from human PBMCs” value is 0.248 µg/mL.
